Experimental data reported in PMC2867299 (The Journal of Cell Biology, 2010).

Target: T1, GST-Myo4p-L-GT (Myo4p linker and globular tail, from residue 1042) (S. cerevisiae, UniProt P32492 1042-1471)
T1 sequence: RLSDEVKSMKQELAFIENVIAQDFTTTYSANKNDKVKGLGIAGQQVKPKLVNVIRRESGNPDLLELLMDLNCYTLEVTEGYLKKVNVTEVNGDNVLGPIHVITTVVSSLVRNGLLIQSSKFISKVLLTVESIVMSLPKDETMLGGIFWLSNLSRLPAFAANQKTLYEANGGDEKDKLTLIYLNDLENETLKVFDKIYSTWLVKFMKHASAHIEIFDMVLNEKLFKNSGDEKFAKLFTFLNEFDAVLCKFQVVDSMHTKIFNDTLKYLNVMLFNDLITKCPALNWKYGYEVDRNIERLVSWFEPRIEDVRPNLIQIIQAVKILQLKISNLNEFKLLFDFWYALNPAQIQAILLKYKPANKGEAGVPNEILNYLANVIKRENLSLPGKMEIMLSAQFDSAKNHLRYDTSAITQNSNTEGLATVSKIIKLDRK
Experiment: pull-down

B1: His-She3p-N (N-terminal half of She3p, aa 1-234) (domain or fragment)
chain: MSDQDNTQTSSSKLAPHHNIFMANLESSPTKDRNTSSQNASSSRVIESLHDQIDMLTKTNLQLTTQSQNLLSKLELAQSKESKLLENLNLLKNENENLNSIFERKNKKLKELEKDYSELSNRYNEQKEKMDQLSKLAKNSSAIEQSCSEKLQNMEVNYNSLLESQNLYRDHYSDEISKLNEKIGLLELELSNQNLNYGSDTSSNSDIELNLNKFNDSVKDLKSLETEKDSKLSK
B1: binds.
